Results published in the Human Domainome abundance scans (Beltran et al. 2025).
± gives the uncertainty stated by the source.

B1: COUP transcription factor 1, residues 83 to 159; numbered along this chain, P10589 (parent)
chain: HIECVVCGDKSSGKHYGQFTCEGCKSFFKRSVRRNLTYTCRANRNCPIDQHHRNQCQYCRLKKCLKVGMRREAVQRG

Variants of: B1
Assay: abundance fitness (aPCA) (normalised: wild type 0, dead -1); higher = more abundant; growth selection in yeast, the domain comes from the species named
Conditions: Homo sapiens

For HIECVVCGDKSSGKHYGQFTCEGCKSFFKRSVRRNLTYTCRANENCPIDQHHRNQCQYCRLKKCLKVGMRREAVQRG, which abundance fitness is on record?
The abundance fitness was 0.082 ± 0.041.

Which abundance fitness does the source give for HIECVVCGDKSSGKHYGQFTCEGCKSFFKRSVRRNLTYTCRANANCPIDQHHRNQCQYCRLKKCLKVGMRREAVQRG here?
Its abundance fitness is 0.077 ± 0.036.

For HIECVVCGDKSSGKHYGQFTCEGCKSFFKRSVRRNLTYTCRANPNCPIDQHHRNQCQYCRLKKCLKVGMRREAVQRG, which abundance fitness is on record?
The abundance fitness was -0.405 ± 0.08.

Which abundance fitness does the source give for HIECVVCGDKSSGKHYGQFTCEGCKSFFKRSVRRNLTYTCRANHNCPIDQHHRNQCQYCRLKKCLKVGMRREAVQRG here?
Its abundance fitness is -0.003 ± 0.096.

For HIECVVCGDKSSGKHYGQFTCEGCKSFFKRSVRRNLTYTCRENRNCPIDQHHRNQCQYCRLKKCLKVGMRREAVQRG, which abundance fitness is on record?
Its abundance fitness is 0.084 ± 0.078.

With HIECVVCGDKSSGKHYGQFTCEGCKSFFKRSVRRNLTYTCRHNRNCPIDQHHRNQCQYCRLKKCLKVGMRREAVQRG as the variant, how does the abundance fitness read?
The abundance fitness was -0.068 ± 0.34.

Which abundance fitness does the source give for HIECVVCGDKSSGKHYGQFTCEGCKSFFKRSVRRNLTYTCRWNRNCPIDQHHRNQCQYCRLKKCLKVGMRREAVQRG here?
The abundance fitness was -0.123 ± 0.086.

With HIECVVCGDKSSGKHYGQFTCEGCKSFFKRSVRRNLTYTCRLNRNCPIDQHHRNQCQYCRLKKCLKVGMRREAVQRG as the variant, how does the abundance fitness read?
Its abundance fitness is 0 ± 0.067.

For HIECVVCGDKSSGKHYGQFTCEGCKSFFKRSVRRNLTYTCRFNRNCPIDQHHRNQCQYCRLKKCLKVGMRREAVQRG, which abundance fitness is on record?
Its abundance fitness is -0.282 ± 0.3.

Which abundance fitness does the source give for HIECVVCGDKSSGKHYGQFTCEGCKSFFKRSVRRNLTYTCRTNRNCPIDQHHRNQCQYCRLKKCLKVGMRREAVQRG here?
The abundance fitness was -0.256 ± 0.15.

Which abundance fitness does the source give for HIECVVCGDKSSGKHYGQFTCEGCKSFFKRSVRRNLTYTCRKNRNCPIDQHHRNQCQYCRLKKCLKVGMRREAVQRG here?
The abundance fitness was 0.002 ± 0.085.

With HIECVVCGDKSSGKHYGQFTCEGCKSFFKRSVRRNLTYTCRGNRNCPIDQHHRNQCQYCRLKKCLKVGMRREAVQRG as the variant, how does the abundance fitness read?
Its abundance fitness is 0.217 ± 0.048.

With HIECVVCGDKSSGKHYGQFTCEGCKSFFKRSVRRNLTYTCRSNRNCPIDQHHRNQCQYCRLKKCLKVGMRREAVQRG as the variant, how does the abundance fitness read?
The abundance fitness was 0.047 ± 0.084.

With HIECVVCGDKSSGKHYGQFTCEGCKSFFKRSVRRNLTYTCRVNRNCPIDQHHRNQCQYCRLKKCLKVGMRREAVQRG as the variant, how does the abundance fitness read?
The abundance fitness was 0.09 ± 0.062.

For HIECVVCGDKSSGKHYGQFTCEGCKSFFKRSVRRNLTYTCRYNRNCPIDQHHRNQCQYCRLKKCLKVGMRREAVQRG, which abundance fitness is on record?
Its abundance fitness is 0.109 ± 0.22.

With HIECVVCGDKSSGKHYGQFTCEGCKSFFKRSVRRNLTYTCRQNRNCPIDQHHRNQCQYCRLKKCLKVGMRREAVQRG as the variant, how does the abundance fitness read?
The abundance fitness was 0.239 ± 0.089.

With HIECVVCGDKSSGKHYGQFTCEGCKSFFKRSVRRNLTYTCRNNRNCPIDQHHRNQCQYCRLKKCLKVGMRREAVQRG as the variant, how does the abundance fitness read?
The abundance fitness was -0.45 ± 0.4.

Which abundance fitness does the source give for HIECVVCGDKSSGKHYGQFTCEGCKSFFKRSVRRNLTYTCRRNRNCPIDQHHRNQCQYCRLKKCLKVGMRREAVQRG here?
The abundance fitness was -0.111 ± 0.054.

With HIECVVCGDKSSGKHYGQFTCEGCKSFFKRSVRRNLTYTCRADRNCPIDQHHRNQCQYCRLKKCLKVGMRREAVQRG as the variant, how does the abundance fitness read?
The abundance fitness was 0.278 ± 0.099.

With HIECVVCGDKSSGKHYGQFTCEGCKSFFKRSVRRNLTYTCRAVRNCPIDQHHRNQCQYCRLKKCLKVGMRREAVQRG as the variant, how does the abundance fitness read?
The abundance fitness was 0.128 ± 0.071.

For HIECVVCGDKSSGKHYGQFTCEGCKSFFKRSVRRNLTYTCRALRNCPIDQHHRNQCQYCRLKKCLKVGMRREAVQRG, which abundance fitness is on record?
The abundance fitness was -0.054 ± 0.068.

Which abundance fitness does the source give for HIECVVCGDKSSGKHYGQFTCEGCKSFFKRSVRRNLTYTCRAWRNCPIDQHHRNQCQYCRLKKCLKVGMRREAVQRG here?
Its abundance fitness is 0.015 ± 0.072.

Which abundance fitness does the source give for HIECVVCGDKSSGKHYGQFTCEGCKSFFKRSVRRNLTYTCRAARNCPIDQHHRNQCQYCRLKKCLKVGMRREAVQRG here?
Its abundance fitness is 0.152 ± 0.06.

For HIECVVCGDKSSGKHYGQFTCEGCKSFFKRSVRRNLTYTCRARRNCPIDQHHRNQCQYCRLKKCLKVGMRREAVQRG, which abundance fitness is on record?
The abundance fitness was 0.012 ± 0.051.

With HIECVVCGDKSSGKHYGQFTCEGCKSFFKRSVRRNLTYTCRAPRNCPIDQHHRNQCQYCRLKKCLKVGMRREAVQRG as the variant, how does the abundance fitness read?
Its abundance fitness is -0.256 ± 0.17.

Which abundance fitness does the source give for HIECVVCGDKSSGKHYGQFTCEGCKSFFKRSVRRNLTYTCRAFRNCPIDQHHRNQCQYCRLKKCLKVGMRREAVQRG here?
Its abundance fitness is -0.22 ± 0.2.

For HIECVVCGDKSSGKHYGQFTCEGCKSFFKRSVRRNLTYTCRAERNCPIDQHHRNQCQYCRLKKCLKVGMRREAVQRG, which abundance fitness is on record?
The abundance fitness was 0.227 ± 0.065.

With HIECVVCGDKSSGKHYGQFTCEGCKSFFKRSVRRNLTYTCRATRNCPIDQHHRNQCQYCRLKKCLKVGMRREAVQRG as the variant, how does the abundance fitness read?
The abundance fitness was -0.051 ± 0.097.

With HIECVVCGDKSSGKHYGQFTCEGCKSFFKRSVRRNLTYTCRAKRNCPIDQHHRNQCQYCRLKKCLKVGMRREAVQRG as the variant, how does the abundance fitness read?
Its abundance fitness is 0.018 ± 0.081.

With HIECVVCGDKSSGKHYGQFTCEGCKSFFKRSVRRNLTYTCRAIRNCPIDQHHRNQCQYCRLKKCLKVGMRREAVQRG as the variant, how does the abundance fitness read?
The abundance fitness was -0.335 ± 0.24.

With HIECVVCGDKSSGKHYGQFTCEGCKSFFKRSVRRNLTYTCRAHRNCPIDQHHRNQCQYCRLKKCLKVGMRREAVQRG as the variant, how does the abundance fitness read?
The abundance fitness was -0.319 ± 0.19.

Which abundance fitness does the source give for HIECVVCGDKSSGKHYGQFTCEGCKSFFKRSVRRNLTYTCRAQRNCPIDQHHRNQCQYCRLKKCLKVGMRREAVQRG here?
Its abundance fitness is 0.027 ± 0.1.

Which abundance fitness does the source give for HIECVVCGDKSSGKHYGQFTCEGCKSFFKRSVRRNLTYTCRAMRNCPIDQHHRNQCQYCRLKKCLKVGMRREAVQRG here?
Its abundance fitness is -0.222 ± 0.13.

Which abundance fitness does the source give for HIECVVCGDKSSGKHYGQFTCEGCKSFFKRSVRRNLTYTCRASRNCPIDQHHRNQCQYCRLKKCLKVGMRREAVQRG here?
The abundance fitness was 0.011 ± 0.064.

For HIECVVCGDKSSGKHYGQFTCEGCKSFFKRSVRRNLTYTCRAGRNCPIDQHHRNQCQYCRLKKCLKVGMRREAVQRG, which abundance fitness is on record?
Its abundance fitness is 0.051 ± 0.05.

For HIECVVCGDKSSGKHYGQFTCEGCKSFFKRSVRRNLTYTCRAYRNCPIDQHHRNQCQYCRLKKCLKVGMRREAVQRG, which abundance fitness is on record?
The abundance fitness was -0.374 ± 0.23.
